# Measured values taken from PMC3285688, “Active Site Mutations Change the Cleavage Specificity of Neprilysin” (PLoS ONE, 2012).
# What was measured:
# Format in all cases: biochemical
# [1] = test system: leu-ENK and insulin B chain; assay: Dual substrate assay: substrate preference leu-ENK versus insulin B chain
# Protocol: (§1) The rate of cleavage of a substrate mixture is determined by both the kcat for that substrate as well by the affinity for the substrate. […] This is expected, given that each peptide acts as a competitive inhibitor of the other. […] That is the ratio for leu-ENK/insulin B chain cleavage is 3 for NEP^S546E compared to 6 for wild-type NEP.
# (§2) Cleavage of physiological peptides was measured via reverse phase high performance liquid chromatography (HPLC) following incubation of the purified NEP or its mutants with 15 µM insulin B chain (Sigma Aldrich), 24 µM Aß1–40 (Anaspec), or 64 µM leu-ENK (Sigma) in 100 µL of 20 mM MES, pH 6.5, at 37°C. Reactions were run in triplicate. HPLC was carried out in a Vydac C4 column using a linear gradient from 0.1% trifluoroacetic acid (TFA) in 95% water, 5% acetonitrile to 0.1% TFA in 50% acetonitrile/water at a flow rate of 1 mL/min. Peptides and hydrolysis products were detected at 214 nm and quantified by measuring peak areas. Peptides obtained from HPLC were analyzed on an Applied Biosystems 4800 MALDI TOF/TOF Proteomics Analyzer at the University of Kentucky Proteomics core. This facility is supported in part by grant P20RR020171 from the NIH/NCRR.
# Aß1–40 = assay: Rate of Aß1–40 hydrolysis (HPLC); conditions: 24 µM Aß1–40, 37°C, 20 mM MES buffer, pH 6.5; disappearance of substrate by HPLC; at least triplicate
# Protocol: as §2
# (§3) Statistical analysis comparing wild-type NEP and its mutants was performed with Prism 4 software using a two-tailed paired t-test with a 95% confidence interval.
# insulin B chain [2] = assay: Insulin B chain as alternate substrate (competitive) inhibitor of Glut-Ala-Ala-Phe-MNA hydrolysis (Dixon plot); conditions: insulin B chain 1 to 40 µM as competitive inhibitor of Glut-Ala-Ala-Phe-MNA hydrolysis by the enzyme form, 37°C, 20 mM MES, pH 6.5, ID50 converted to Ki
# Protocol: (§4) Kinetic constants for NEP and its mutants were obtained using the assay conditions noted above, but with Glut-Ala-Ala-Phe-MNA varied from 20 to 500 µM. Typically 12 data points were obtained. The data were fit to the Michaelis-Menten equation using Prism4 software. The Ki for insulin B chain was obtained by measuring the rate of Glut-Ala-Ala-Phe-MNA hydrolysis in the presence of varying concentrations of insulin B chain from 1 to 40 µM. Data were fit to a Dixon plot (1/rate versus [insulin B chain]) using Prism4 software and the ID50 obtained as the –x intercept, where ID50 corresponds to the concentration of insulin producing 50% inhibition. The actual Ki was obtained from the equation: ID50 = Ki (1+ [Glut-Ala-Ala-Phe-MNA]/KmGlut-Ala-Ala-Phe-MNA), [33].
# leu-ENK [3] = assay: Rate of leu-ENK hydrolysis (HPLC)
# Protocol: as §2, §3
# leu-ENK [4] = assay: Dual substrate assay: leu-ENK hydrolysis in presence of insulin B chain; conditions: 15 µM insulin B chain and 64 µM leu-ENK together, 37°C, 20 mM MES buffer, pH 6.5
# Protocol: as §1, §2
# insulin B chain [5] = assay: Dual substrate assay: insulin B chain hydrolysis in presence of leu-ENK; conditions: 15 µM insulin B chain and 64 µM leu-ENK together, 37°C, 20 mM MES buffer, pH 6.5
# Protocol: as §1, §2
# [6] = Hydrolysis of synthetic substrate Glut-Ala-Ala-Phe-MNA by NEP and mutants (fluorogenic); conditions: for Km: Glut-Ala-Ala-Phe-MNA 20 to 500 µM, Michaelis-Menten fit; for Activity relative to wild-type enzyme (Glut-Ala-Ala-Phe-MNA): pH 6.5, 37°C
# Protocol: Reactions of 400 µl contained 100 µM Glut-Ala-Ala-Phe-MNA, 1 µg of aminopeptidase and 15 to 100 ng of NEP or mutant NEP depending on their activity in 20 mM MES buffer, pH 6.5. Activity was monitored with a Spectra Max Gemini XS plate reader using an excitation wavelength of 340 nm and an emission wavelength of 425 nm.
# as §4
# insulin B chain [7] = assay: Rate of insulin B chain hydrolysis (HPLC); conditions: 15 µM insulin B chain, 37°C, 20 mM MES buffer, pH 6.5; disappearance of substrate by HPLC; at least triplicate
# Protocol: as §2, §3
molecule,measurement,setting,value
"NEP^F563V: neprilysin active site mutant, Phe563 to valine (protein, UniProt P08473 2-750, looked up, variant F563V) Neprilysin: GKSESQMDITDINTPKPKKKQRWTPLEISLSVLVLLLTIIAVTMIALYATYDDGICKSSDCIKSAARLIQNMDATTEPCTDFFKYACGGWLKRNVIPETSSRYGNFDILRDELEVVLKDVLQEPKTEDIVAVQKAKALYRSCINESAIDSRGGEPLLKLLPDIYGWPVATENWEQKYGASWTAEKAIAQLNSKYGKKVLINLFVGTDDKNSVNHVIHIDQPRLGLPSRDYYECTGIYKEACTAYVDFMISVARLIRQEERLPIDENQLALEMNKVMELEKEIANATAKPEDRNDPMLLYNKMTLAQIQNNFSLEINGKPFSWLNFTNEIMSTVNISITNEEDVVVYAPEYLTKLKPILTKYSARDLQNLMSWRFIMDLVSSLSRTYKESRNAFRKALYGTTSETATWRRCANYVNGNMENAVGRLYVEAAFAGESKHVVEDLIAQIREVFIQTLDDLTWMDAETKKRAEEKALAIKERIGYPDDIVSNDNKLNNEYLELNYKEDEYFENIIQNLKFSQSKQLKKLREKVDKDEWISGAAVVNAFYSSGRNQIVFPAGILQPPVFSAQQSNSLNYGGIGMVIGHEITHGFDDNGRNFNKDGDLVDWWTQQSASNFKEQSQCMVYQYGNFSWDLAGGQHLNGINTLGENIADNGGLGQAYRAYQNYIKKNGEEKLLPGLDLNHKQLFFLNFAQVWCGTYRPEYAVNSIKTDVHSPGNFRIIGTLQNSAEFSEAFHCRKNSYMNPEKKCRVW",Substrate preference leu-ENK/insulin B chain (in words),"[1]; dual substrate assay, versus wild-type",no change in overall substrate preference
same,Ratio leu-ENK insulin B chain,"[1]; ratio of rates, 15 µM insulin B chain and 64 µM leu-ENK together",5.8
same,Rate of hydrolysis of Aß1–40,Aß1–40,14 ± 1 fmol/min/ng
same,Ki,insulin B chain [2],1000 ± 100 nM
same,leu-ENK cleavage rate as fraction of wild-type rate,leu-ENK [3]; 64 µM leu-ENK,1/6
same,Rate of hydrolysis of leu-ENK,"leu-ENK [3]; 64 µM leu-ENK, 37°C, 20 mM MES buffer, pH 6.5, disappearance of substrate by HPLC, at least triplicate",0.31 ± 0.02 pmol/min/ng
same,leu-ENK cleavage rate relative to wild-type NEP rate,"leu-ENK [3]; 64 µM leu-ENK, pH 6.5, 37°C",less than 20%
same,Increase in preference for leu-ENK (over Aß1–40),"leu-ENK [3]; relative to NEP, from separate single-substrate rates",two fold
same,"leu-ENK hydrolysis rate, dual substrate assay",leu-ENK [4],0.23 ± 0.03 pmol/min/ng
same,"leu-ENK hydrolysis, activity relative to the uninhibited value",leu-ENK [4]; numbers in parenthesis,0.74
same,"Insulin B Chain hydrolysis rate, dual substrate assay",insulin B chain [5],0.04 ± 0.01 pmol/min/ng
same,"Insulin B Chain hydrolysis, activity relative to the uninhibited value",insulin B chain [5]; numbers in parenthesis,0.67
same,Specific Activity (Glut-Ala-Ala-Phe-MNA cleavage),"[6]; 100 µM Glut-Ala-Ala-Phe-MNA, 37°C, 20 mM MES buffer, pH 6.5, fluorescence ex 340 nm, em 425 nm",11.2 ± 0.3 pmol/min/ng
same,Km,"[6]; 37°C, 20 mM MES buffer, pH 6.5",51 ± 10 µM
same,Activity relative to wild-type enzyme (Glut-Ala-Ala-Phe-MNA),[6],~25%
same,Rate of hydrolysis of Insulin B Chain,insulin B chain [7],0.06 ± 0.02 pmol/min/ng
"NEP^F563K: neprilysin active site mutant, Phe563 to lysine (low expressing) (protein, UniProt P08473 2-750, looked up, variant F563K) Neprilysin: GKSESQMDITDINTPKPKKKQRWTPLEISLSVLVLLLTIIAVTMIALYATYDDGICKSSDCIKSAARLIQNMDATTEPCTDFFKYACGGWLKRNVIPETSSRYGNFDILRDELEVVLKDVLQEPKTEDIVAVQKAKALYRSCINESAIDSRGGEPLLKLLPDIYGWPVATENWEQKYGASWTAEKAIAQLNSKYGKKVLINLFVGTDDKNSVNHVIHIDQPRLGLPSRDYYECTGIYKEACTAYVDFMISVARLIRQEERLPIDENQLALEMNKVMELEKEIANATAKPEDRNDPMLLYNKMTLAQIQNNFSLEINGKPFSWLNFTNEIMSTVNISITNEEDVVVYAPEYLTKLKPILTKYSARDLQNLMSWRFIMDLVSSLSRTYKESRNAFRKALYGTTSETATWRRCANYVNGNMENAVGRLYVEAAFAGESKHVVEDLIAQIREVFIQTLDDLTWMDAETKKRAEEKALAIKERIGYPDDIVSNDNKLNNEYLELNYKEDEYFENIIQNLKFSQSKQLKKLREKVDKDEWISGAAVVNAFYSSGRNQIVFPAGILQPPKFSAQQSNSLNYGGIGMVIGHEITHGFDDNGRNFNKDGDLVDWWTQQSASNFKEQSQCMVYQYGNFSWDLAGGQHLNGINTLGENIADNGGLGQAYRAYQNYIKKNGEEKLLPGLDLNHKQLFFLNFAQVWCGTYRPEYAVNSIKTDVHSPGNFRIIGTLQNSAEFSEAFHCRKNSYMNPEKKCRVW",Activity relative to wild-type enzyme (Glut-Ala-Ala-Phe-MNA),[6],< 1%
"NEP^S546A: neprilysin active site mutant, Ser546 to alanine (protein, UniProt P08473 2-750, looked up, variant S546A) Neprilysin: GKSESQMDITDINTPKPKKKQRWTPLEISLSVLVLLLTIIAVTMIALYATYDDGICKSSDCIKSAARLIQNMDATTEPCTDFFKYACGGWLKRNVIPETSSRYGNFDILRDELEVVLKDVLQEPKTEDIVAVQKAKALYRSCINESAIDSRGGEPLLKLLPDIYGWPVATENWEQKYGASWTAEKAIAQLNSKYGKKVLINLFVGTDDKNSVNHVIHIDQPRLGLPSRDYYECTGIYKEACTAYVDFMISVARLIRQEERLPIDENQLALEMNKVMELEKEIANATAKPEDRNDPMLLYNKMTLAQIQNNFSLEINGKPFSWLNFTNEIMSTVNISITNEEDVVVYAPEYLTKLKPILTKYSARDLQNLMSWRFIMDLVSSLSRTYKESRNAFRKALYGTTSETATWRRCANYVNGNMENAVGRLYVEAAFAGESKHVVEDLIAQIREVFIQTLDDLTWMDAETKKRAEEKALAIKERIGYPDDIVSNDNKLNNEYLELNYKEDEYFENIIQNLKFSQSKQLKKLREKVDKDEWISGAAVVNAFYASGRNQIVFPAGILQPPFFSAQQSNSLNYGGIGMVIGHEITHGFDDNGRNFNKDGDLVDWWTQQSASNFKEQSQCMVYQYGNFSWDLAGGQHLNGINTLGENIADNGGLGQAYRAYQNYIKKNGEEKLLPGLDLNHKQLFFLNFAQVWCGTYRPEYAVNSIKTDVHSPGNFRIIGTLQNSAEFSEAFHCRKNSYMNPEKKCRVW",Km,"[6]; 37°C, 20 mM MES buffer, pH 6.5",118 ± 7 µM
"NEP^S546T: neprilysin active site mutant, Ser546 to threonine (protein, UniProt P08473 2-750, looked up, variant S546T) Neprilysin: GKSESQMDITDINTPKPKKKQRWTPLEISLSVLVLLLTIIAVTMIALYATYDDGICKSSDCIKSAARLIQNMDATTEPCTDFFKYACGGWLKRNVIPETSSRYGNFDILRDELEVVLKDVLQEPKTEDIVAVQKAKALYRSCINESAIDSRGGEPLLKLLPDIYGWPVATENWEQKYGASWTAEKAIAQLNSKYGKKVLINLFVGTDDKNSVNHVIHIDQPRLGLPSRDYYECTGIYKEACTAYVDFMISVARLIRQEERLPIDENQLALEMNKVMELEKEIANATAKPEDRNDPMLLYNKMTLAQIQNNFSLEINGKPFSWLNFTNEIMSTVNISITNEEDVVVYAPEYLTKLKPILTKYSARDLQNLMSWRFIMDLVSSLSRTYKESRNAFRKALYGTTSETATWRRCANYVNGNMENAVGRLYVEAAFAGESKHVVEDLIAQIREVFIQTLDDLTWMDAETKKRAEEKALAIKERIGYPDDIVSNDNKLNNEYLELNYKEDEYFENIIQNLKFSQSKQLKKLREKVDKDEWISGAAVVNAFYTSGRNQIVFPAGILQPPFFSAQQSNSLNYGGIGMVIGHEITHGFDDNGRNFNKDGDLVDWWTQQSASNFKEQSQCMVYQYGNFSWDLAGGQHLNGINTLGENIADNGGLGQAYRAYQNYIKKNGEEKLLPGLDLNHKQLFFLNFAQVWCGTYRPEYAVNSIKTDVHSPGNFRIIGTLQNSAEFSEAFHCRKNSYMNPEKKCRVW",Km,"[6]; 37°C, 20 mM MES buffer, pH 6.5",73 ± 6 µM
